Data taken from the supplement of paper PMC7877785.
± gives the uncertainty stated by the source.

Experiment: self-splicing fitness, log relative to wild type (ln ratio); higher = more splicing; Tetrahymena group I intron in knt gene, E. coli kanamycin selection, DiMSum; sequences stand for … in CUCUCU…GGAGGGAAAAGUUAUCAGGCAUGCACCUGGUAGCUAGUCUUUAAACCAAUAGAUUGCAUCGGUUUAAAAGGCAAGACCGUCAAAUUGCGGGAAAGGGGUCAACAGCCGUUCAGUACCAAGUCUCAGGGGAAACUUUGAGAUGGCCUUGCAAAGGGUAUGGUAAUAAGCUGACGGACAUGGUCCUAACCACGCAGCCAAGUCCUAAGUCAACAGAUCUUCUGUUGAUAUGGAUGCAGUUCACAGACUAAAUGUCGGUCGGGGAAGAUGUAUUCUUCUCAUAAGAUAUAGUCGGACCUCUCCUUAAUGGGAGCUAGCGGAUGAAGUGAUGCAACACUGGAGCCGCUGGGAACUAAUUUGUAUGCGAAAGUAUAUUGAUUAGUUUUGGAGUACUCGUGGUCG
In short: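 Six replicate transformations of E. coli BL21(DE3) with a pET-22b(+) library were grown overnight at 37°C or 30°C. The library randomised all eight P1ex-region intron nucleotides, the intron lying in the knt kanamycin-resistance gene, and plates were LB agar with or without 25 μg/mL kanamycin plus 100 μg/mL carbenicillin, 50 μM IPTG and 0.2% rhamnose. Pooled colonies were amplicon-sequenced on an Illumina HiSeq 2500, and fitness is the DiMSum error-weighted combination of wild-type-normalised replicate fold changes, kanamycin versus none.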

Row | Sequence | self-splicing fitness (ln) (30 °C) | self-splicing fitness (ln) (37 °C)
1 | UGCUAGCAAUAUUACGGGGU | -2.82 ± 0.21 | -2.09 ± 0.21
2 | UGCUAGCAAUAUUACGGUAU | -2.28 ± 0.1 | -2.43 ± 0.14
3 | UGCUAGCAAUAUUACGUAGG | -2.18 ± 0.14 | -0.778 ± 0.2
4 | UGCUAGCAAUAUUACGUGAU | -1.88 ± 0.13 | -1.39 ± 0.16
5 | UGCUAGCAAUAUUACGUGUA | -1.74 ± 0.1 | -1.26 ± 0.1
6 | UGCUAGCAAUAUUACGUUCC |  | -0.823 ± 0.42
7 | UGCUAGCAAUAUUACGUUUC | -4.01 ± 0.42 | -2.06 ± 0.34
8 | UGGAAGCAAUAUUACGAACC | -1.6 ± 0.13 | -0.663 ± 0.12
9 | UGGAAGCAAUAUUACGAAGG | -2.12 ± 0.14 | -0.449 ± 0.18
10 | UGGAAGCAAUAUUACGACCG | -0.874 ± 0.13 | -0.818 ± 0.17
11 | UGGAAGCAAUAUUACGACUC | -0.463 ± 0.11 | -0.577 ± 0.16
12 | UGGAAGCAAUAUUACGAGAC | -3.31 ± 0.48 | 
13 | UGGAAGCAAUAUUACGCAUG | -1.02 ± 0.096 | -0.486 ± 0.12
14 | UGGAAGCAAUAUUACGCCAC | -2.25 ± 0.42 | 
15 | UGGAAGCAAUAUUACGCCGG | -0.646 ± 0.17 | -0.109 ± 0.16
16 | UGGAAGCAAUAUUACGCCGU | -2.99 ± 0.48 | -1.87 ± 0.44
17 | UGGAAGCAAUAUUACGCUAA | -1.31 ± 0.32 | -0.826 ± 0.38
18 | UGGAAGCAAUAUUACGGAAG | -1.69 ± 0.12 | -1.46 ± 0.17
19 | UGGAAGCAAUAUUACGGCAU | -1.94 ± 0.19 | -1.13 ± 0.19
20 | UGGAAGCAAUAUUACGGCGU | -1.16 ± 0.13 | 0.0292 ± 0.12
21 | UGGAAGCAAUAUUACGGCUC | -1.89 ± 0.49 | -1.42 ± 0.36
22 | UGGAAGCAAUAUUACGGGAA | -2.15 ± 0.21 | -1.19 ± 0.16
23 | UGGAAGCAAUAUUACGGGAG | -1.73 ± 0.37 | -2.09 ± 0.25
24 | UGGAAGCAAUAUUACGGGGC | -3.24 ± 0.44 | -1.35 ± 0.26
25 | UGGAAGCAAUAUUACGGGGU | -3.12 ± 0.31 | -1.99 ± 0.35

Row | Sequence | self-splicing fitness (ln) (30 °C) | self-splicing fitness (ln) (37 °C)
26 | UGGAAGCAAUAUUACGGGUA | -1.67 ± 0.13 | -1.05 ± 0.13
27 | UGGAAGCAAUAUUACGGUCC | -2.67 ± 0.15 | -1.51 ± 0.14
28 | UGGAAGCAAUAUUACGGUGA | -1.41 ± 0.12 | -0.4 ± 0.13
29 | UGGAAGCAAUAUUACGGUGG | -1.42 ± 0.091 | -0.276 ± 0.11
30 | UGGAAGCAAUAUUACGGUUC | -3.84 ± 0.2 | -2.21 ± 0.2
31 | UGGAAGCAAUAUUACGUAAC | -2.91 ± 0.33 | -1.71 ± 0.26
32 | UGGAAGCAAUAUUACGUAAU | -3.03 ± 0.18 | -0.953 ± 0.16
33 | UGGAAGCAAUAUUACGUAUA | -2.2 ± 0.26 | -1.27 ± 0.2
34 | UGGAAGCAAUAUUACGUCCA | -2.02 ± 0.39 | 
35 | UGGAAGCAAUAUUACGUCUU | -0.99 ± 0.11 | -0.129 ± 0.13
36 | UGGAAGCAAUAUUACGUGAG | -0.593 ± 0.066 | -0.141 ± 0.098
37 | UGGAAGCAAUAUUACGUGUC |  | -2.38 ± 0.18
38 | UGGAAGCAAUAUUACGUUAG | -0.289 ± 0.094 | -1.07 ± 0.14
39 | UGGAAGCAAUAUUACGUUUU | -3.63 ± 0.33 | -2.43 ± 0.27
40 | UGGCAGCAAUAUUACGAAAU | -3.14 ± 0.29 | -0.617 ± 0.19
41 | UGGCAGCAAUAUUACGACAC |  | -0.701 ± 0.31
42 | UGGCAGCAAUAUUACGAGUU | -4.06 ± 0.3 | -2.48 ± 0.24
43 | UGGCAGCAAUAUUACGAUAA | -0.124 ± 0.1 | 0.0812 ± 0.1
44 | UGGCAGCAAUAUUACGAUGU | -4.09 ± 0.3 | -1.67 ± 0.34
45 | UGGCAGCAAUAUUACGAUUA | -0.716 ± 0.089 | 0.492 ± 0.11
46 | UGGCAGCAAUAUUACGCAAC | -2.74 ± 0.18 | -2.14 ± 0.39
47 | UGGCAGCAAUAUUACGCAAU | -2.31 ± 0.099 | -1 ± 0.12
48 | UGGCAGCAAUAUUACGCCAA | -1.03 ± 0.13 | -0.634 ± 0.12
49 | UGGCAGCAAUAUUACGCCGA | -0.136 ± 0.092 | 0.134 ± 0.1
50 | UGGCAGCAAUAUUACGCUGU | -2.97 ± 0.15 | -2.18 ± 0.21

Row | Sequence | self-splicing fitness (ln) (30 °C) | self-splicing fitness (ln) (37 °C)
51 | UGGCAGCAAUAUUACGGCAG | -0.148 ± 0.12 | 0.163 ± 0.14
52 | UGGCAGCAAUAUUACGGGCA | -0.0254 ± 0.11 | -0.0149 ± 0.12
53 | UGGCAGCAAUAUUACGGGGU | -3.97 ± 0.13 | -2.62 ± 0.14
54 | UGGCAGCAAUAUUACGGUUG | -1.46 ± 0.07 | -1.04 ± 0.082
55 | UGGCAGCAAUAUUACGUCUG | -1.31 ± 0.082 | -0.936 ± 0.11
56 | UGGCAGCAAUAUUACGUGCG | -0.238 ± 0.061 | 0.163 ± 0.084
57 | UGGCAGCAAUAUUACGUUCA | -0.133 ± 0.084 | 0.272 ± 0.1
58 | UGGCAGCAAUAUUACGUUUC | -3.1 ± 0.14 | -2.77 ± 0.26
59 | UGGGAGCAAUAUUACGAAAC | -1.85 ± 0.22 | -1.79 ± 0.49
60 | UGGGAGCAAUAUUACGAACA | -1.33 ± 0.088 | -1.02 ± 0.091
61 | UGGGAGCAAUAUUACGAAUG | -1.99 ± 0.21 | -2.07 ± 0.33
62 | UGGGAGCAAUAUUACGAGCA | -1.28 ± 0.18 | -0.71 ± 0.18
63 | UGGGAGCAAUAUUACGAGCU | -3.52 ± 0.37 | -1.69 ± 0.25
64 | UGGGAGCAAUAUUACGAGGA |  | -3.9 ± 0.47
65 | UGGGAGCAAUAUUACGAGGC | -2.02 ± 0.35 | 
66 | UGGGAGCAAUAUUACGCGUA | -0.6 ± 0.38 | 0.46 ± 0.3
67 | UGGGAGCAAUAUUACGCUGC |  | -1.15 ± 0.28
68 | UGGGAGCAAUAUUACGCUUC | -1.91 ± 0.36 | 
69 | UGGGAGCAAUAUUACGGAGG | -3.43 ± 0.36 | 
70 | UGGGAGCAAUAUUACGGGCG | -2.4 ± 0.27 | -0.751 ± 0.26
71 | UGGGAGCAAUAUUACGGGCU | -1.78 ± 0.35 | 
72 | UGGGAGCAAUAUUACGGUAG | -3.16 ± 0.28 | -1.26 ± 0.21
73 | UGGGAGCAAUAUUACGGUCU | -4.3 ± 0.32 | -2.09 ± 0.22
74 | UGGGAGCAAUAUUACGGUUG | -2.07 ± 0.22 | 
75 | UGGGAGCAAUAUUACGUAGA | -2.19 ± 0.26 | 

Row | Sequence | self-splicing fitness (ln) (30 °C) | self-splicing fitness (ln) (37 °C)
76 | UGGGAGCAAUAUUACGUAGU |  | -1.82 ± 0.28
77 | UGGGAGCAAUAUUACGUGUU | -3.63 ± 0.23 | -2.91 ± 0.34
78 | UGGGAGCAAUAUUACGUUCG | -1.34 ± 0.22 | -0.604 ± 0.3
79 | UGGGAGCAAUAUUACGUUUC | -3.05 ± 0.23 | -1.66 ± 0.4
80 | UGGUAGCAAUAUUACGACAA | -0.344 ± 0.41 | -0.278 ± 0.31
81 | UGGUAGCAAUAUUACGACUG | -0.361 ± 0.25 | -0.806 ± 0.3
82 | UGGUAGCAAUAUUACGAGCU | -2.09 ± 0.093 | -1.02 ± 0.12
83 | UGGUAGCAAUAUUACGCACU | -2.2 ± 0.19 | -0.474 ± 0.22
84 | UGGUAGCAAUAUUACGGCCU | -0.807 ± 0.18 | -0.532 ± 0.39
85 | UGGUAGCAAUAUUACGGCGU | -1.44 ± 0.12 | -0.737 ± 0.12
86 | UGGUAGCAAUAUUACGGGUU | -4.12 ± 0.18 | -3.49 ± 0.24
87 | UGGUAGCAAUAUUACGGUGA | -1.36 ± 0.12 | -1.34 ± 0.12
88 | UGGUAGCAAUAUUACGGUUG | -0.694 ± 0.082 | -0.285 ± 0.11
89 | UGGUAGCAAUAUUACGUAAC | -2.08 ± 0.45 | 
90 | UGGUAGCAAUAUUACGUAUG | -1.66 ± 0.13 | -1.18 ± 0.13
91 | UGGUAGCAAUAUUACGUCAA | -2.31 ± 0.19 | -0.773 ± 0.15
92 | UGGUAGCAAUAUUACGUCAU | -2.49 ± 0.23 | -2.57 ± 0.36
93 | UGGUAGCAAUAUUACGUGGG | -3.64 ± 0.3 | -2.14 ± 0.19
94 | UGUAAGCAAUAUUACGAAUC | -1.82 ± 0.25 | -2.33 ± 0.49
95 | UGUAAGCAAUAUUACGACCU | -0.205 ± 0.13 | -0.0468 ± 0.12
96 | UGUAAGCAAUAUUACGAGCG | 0.195 ± 0.1 | 0.758 ± 0.14
97 | UGUAAGCAAUAUUACGAUAC | -2.7 ± 0.28 | -2.07 ± 0.26
98 | UGUAAGCAAUAUUACGAUCA | 0.319 ± 0.079 | 0.535 ± 0.13
99 | UGUAAGCAAUAUUACGAUCU | 0.361 ± 0.11 | 0.0759 ± 0.13
100 | UGUAAGCAAUAUUACGAUGC | -3.75 ± 0.27 | -2.34 ± 0.28
